Data set [1] concerns the target T1, HMGB1-WT (Homo sapiens, UniProt P09429 2-215). As to the kind of experiment: fluorescence anisotropy. On the technique in general: Fluorescence polarisation rises when a labelled molecule tumbles more slowly, as on binding a larger partner.
Data set [2] deals with T2, RAG1c (core RAG1) (Mus musculus, UniProt P15919 384-1008).
T2 sequence: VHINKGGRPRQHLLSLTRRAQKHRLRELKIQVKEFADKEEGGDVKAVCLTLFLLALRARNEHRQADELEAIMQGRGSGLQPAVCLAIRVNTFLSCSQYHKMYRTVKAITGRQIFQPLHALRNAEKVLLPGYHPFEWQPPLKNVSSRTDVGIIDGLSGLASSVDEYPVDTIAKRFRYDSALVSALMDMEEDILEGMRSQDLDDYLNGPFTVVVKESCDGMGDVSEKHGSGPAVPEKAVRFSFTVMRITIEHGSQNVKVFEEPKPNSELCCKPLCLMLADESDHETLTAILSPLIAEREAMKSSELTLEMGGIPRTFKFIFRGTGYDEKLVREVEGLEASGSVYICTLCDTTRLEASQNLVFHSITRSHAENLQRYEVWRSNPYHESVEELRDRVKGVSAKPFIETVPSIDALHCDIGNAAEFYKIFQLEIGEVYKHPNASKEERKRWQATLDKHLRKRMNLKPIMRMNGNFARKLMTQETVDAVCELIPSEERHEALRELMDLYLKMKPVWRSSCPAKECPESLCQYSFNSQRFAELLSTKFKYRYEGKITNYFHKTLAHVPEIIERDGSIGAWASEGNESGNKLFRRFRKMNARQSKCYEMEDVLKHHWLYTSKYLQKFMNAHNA
As to the kind of experiment: fluorescence anisotropy.

In data set [3] the target is HMGB1-A488;RAG1c (core RAG1) (Homo sapiens;Mus musculus, UniProt P09429;P15919 2-215;384-1008, C23A;A34C;C45A;C106A|). Put plainly: fluorescence anisotropy.
Sequence of HMGB1-A488;RAG1c (core RAG1) (P09429 2-215 C23A/A34C/C45A/C106A, one chain of several): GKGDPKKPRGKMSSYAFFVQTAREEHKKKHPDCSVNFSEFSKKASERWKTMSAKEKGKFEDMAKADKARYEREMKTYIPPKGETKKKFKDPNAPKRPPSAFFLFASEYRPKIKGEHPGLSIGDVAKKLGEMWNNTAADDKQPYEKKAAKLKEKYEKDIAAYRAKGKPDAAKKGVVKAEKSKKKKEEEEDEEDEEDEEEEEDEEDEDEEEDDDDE
Data set [4] has as its target T3, HMGB1-WT;RAG1c (core RAG1) (Homo sapiens;Mus musculus, UniProt P09429;P15919 2-215;384-1008, |). As to the kind of experiment: pull-down.
In data set [5] the target is HMGB1-WT;RAG1c (core RAG1);GST-RAG2c (core RAG2) (Homo sapiens;Mus musculus;Mus musculus, UniProt P09429;P15919;P21784 2-215;384-1008;1-387, ||). As to the kind of experiment: EMSA.
Sequence of HMGB1-WT;RAG1c (core RAG1);GST-RAG2c (core RAG2) (P09429 2-215, chain 1 of 2): as the sequence (P09429 2-215 C23A/A34C/C45A/C106A, one chain of several) above, with A22C, C33A, A44C, A105C counted along it
Sequence of HMGB1-WT;RAG1c (core RAG1);GST-RAG2c (core RAG2) (P21784 1-387, chain 3 of 2): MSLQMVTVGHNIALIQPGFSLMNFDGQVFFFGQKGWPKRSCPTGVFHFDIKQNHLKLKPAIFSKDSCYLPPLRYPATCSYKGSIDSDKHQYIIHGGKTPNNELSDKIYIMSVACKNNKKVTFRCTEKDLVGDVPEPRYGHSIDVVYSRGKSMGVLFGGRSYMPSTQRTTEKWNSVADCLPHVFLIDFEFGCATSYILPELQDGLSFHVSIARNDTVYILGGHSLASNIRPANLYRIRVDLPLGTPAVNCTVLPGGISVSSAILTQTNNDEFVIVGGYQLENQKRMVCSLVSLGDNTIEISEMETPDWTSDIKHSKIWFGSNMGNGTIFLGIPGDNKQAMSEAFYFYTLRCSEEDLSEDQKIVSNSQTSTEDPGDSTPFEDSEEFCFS
Another data set concerns the target HMGB1-A488 (Homo sapiens, UniProt P09429 2-215, C23A;A34C;C45A;C106A). Put plainly: EMSA. Background: A gel shift assay detects complexes by their altered migration in electrophoresis.
The target in data set [6] is T1, HMGB1-WT. Put plainly: fluorescence anisotropy. This is another data set of the same source.
Data set [7] has as its target T2, RAG1c (core RAG1). As to the kind of experiment: fluorescence anisotropy. This is another data set of the same source.
Data set [8] concerns the target T3, HMGB1-WT;RAG1c (core RAG1). As to the kind of experiment: pull-down. This is another data set of the same source.
Data set [9] addresses T1, HMGB1-WT. Put plainly: pull-down.

Where two headings read alike, the source gives them in different places.

T1 sequence (P09429 2-215): as the sequence (P09429 2-215 C23A/A34C/C45A/C106A, one chain of several) above, with A22C, C33A, A44C, A105C counted along it
T3 sequence (P09429 2-215, one chain of several): as the sequence (P09429 2-215 C23A/A34C/C45A/C106A, one chain of several) above, with A22C, C33A, A44C, A105C counted along it
Sequence of HMGB1-A488 (P09429 2-215 C23A/A34C/C45A/C106A): as the sequence (P09429 2-215 C23A/A34C/C45A/C106A, one chain of several) above

B1: 23RSS-A488 (dsDNA)
DNA 1: GATCTGGCCTGTCTTACACAGTGATGGAAGCTCAATCTGAACTCTGACAAAAACCTCGAGCGGAG
DNA 2: CTCCGCTCGAGGTTTTTGTCAGAGTTCAGATTGAGCTTCCATCACTGTGTAAGACAGGCCAGATC
As to B1, the Kd with HMGB1-WT [1] was 57 nM; in the data set with RAG1c (core RAG1) [2] it was 78 nM.

B2: 23RSS (dsDNA)
DNA 1: B1 DNA 1
DNA 2: B1 DNA 2
With B2, in [3], the binding result is reported as “binds”.

B3: 23RSS-biotin (dsDNA)
DNA 1: B1 DNA 1
DNA 2: B1 DNA 2
Take B3: in [4], the binding result is “binds”.

B4: 32P-23RSS (dsDNA)
DNA 1: B1 DNA 1
DNA 2: B1 DNA 2
For the molecule B4, the binding result in data set [5] was “binds”.

B5: four-way junction (4WJ) (structured_DNA)
DNA 1: CCTCCGTCCTAGCAAGGGGCTGCTACCGGAAGGG
DNA 2: CCCTTCCGGTAGCAGCCTGAGCGGTGGTTGAAGG
DNA 3: CCTTCAACCACCGCTCAACTCAACTGCAGTCTGG
DNA 4: CCAGACTGCAGTTGAGTCCTTGCTAGGACGGAGG
As for B5, the binding result in the data set with HMGB1-A488 is listed as “binds”.

B6: 23MUT-A488 (dsDNA)
DNA 1: GATCTGGCCTGTCTTAACGCAGTATGGAAGCTCAATCTGAACTCTGTGTCTCTGATCGAGCGGAG
DNA 2: CTCCGCTCGATCAGAGACACAGAGTTCAGATTGAGCTTCCATACTGCGTTAAGACAGGCCAGATC
As to B6, the equilibrium dissociation constant (Kd) was found to be 66 nM in the data set with HMGB1-WT [6] and 104 nM with RAG1c (core RAG1) [7].

B7: 23MUT (dsDNA)
DNA 1: B6 DNA 1
DNA 2: B6 DNA 2
For B7, in data set [3], the binding result is listed as “binds”.

B8: 23SCR-biotin (dsDNA)
DNA 1: GCTGCGTCTCAAGTTACGCTGCGAGGAATCCTGGTAAGATCTGCGTTAAGTCGGATTCATCTACG
DNA 2: CGTAGATGAATCCGACTTAACGCAGATCTTACCAGGATTCCTCGCAGCGTAACTTGAGACGCAGC
For the molecule B8, the binding result (in data set [8]; with HMGB1-WT [9]) was “binds” each time.

B9: 23SCR (dsDNA)
DNA 1: B8 DNA 1
DNA 2: B8 DNA 2
Consider B9, for which the binding result in data set [3] is given as “binds”.

The term Kd denotes the equilibrium constant for the complex coming apart. A higher Kd goes with weaker binding.

(Values after publication PMC3597659.)
